Data on 3 molecules can be found in patent publication US20250313634A1 (WUXI BIOLOGICS SHANGHAI, published 2025).

Test [1] concerns the target T1, full-length human PD-L1 expressed on CHO cells (human, UniProt Q9NZQ7 19-290).
T1 construct: whole, on cells; also called CHO-K1 cells expressing human PD-L1; PD-L1 transfected CHO cells
As to the kind of experiment: FACS on CHO cells transfected with full-length human PD-L1.

Test [2] addresses T1, full-length human PD-L1 expressed on …. As to the kind of experiment: FACS competition on CHO cells expressing human PD-L1; competitor mouse Fc-tagged human PD-1. As for the experimental part:
(§1) 3.1 Competition assay by FACS: to examine whether the fully human antibodies can block the binding of PD-L1 to PD-1, the CHO-K1 cells expressing human PD-L1 were incubated with various concentrations of the fully human antibodies at 4° C. for 1 hour. The unbound antibodies were washed away, and then the mouse Fc-tagged human PD-1 was added to the cells. The binding of human PD-1 to PD-L1 expressing cell was detected by using FITC-conjugated goat anti-mouse IgG, followed by the analysis using a BD Biosciences FACSCanto II and FlowJo Version software.
(§2) Then the mouse Fc-tagged human PD-1 was added to the cells. The binding of human PD-1 to PD-L1 expressing cell was detected by using FITC-conjugated goat anti-mouse IgG, followed by the FACS analysis.

Test [3] concerns the target T2, PD-L2 expressed on transfected CHO cells (Homo sapiens (Human), UniProt Q9BQ51 20-273).
T2 construct: also called PD-L2 of PD-1 ligand family
T2 sequence: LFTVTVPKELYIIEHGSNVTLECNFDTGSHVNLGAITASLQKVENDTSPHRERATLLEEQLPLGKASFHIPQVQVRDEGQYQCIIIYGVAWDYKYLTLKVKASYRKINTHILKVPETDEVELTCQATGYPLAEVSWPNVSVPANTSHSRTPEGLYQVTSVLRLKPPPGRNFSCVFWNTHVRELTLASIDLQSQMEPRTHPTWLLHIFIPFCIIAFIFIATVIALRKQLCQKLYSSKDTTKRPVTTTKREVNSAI
As to the kind of experiment: FACS on PD-L2 transfected CHO-K1 cells, single bar, antibody concentration not shown. The method, then: 3.8 Cross-family binding assay by FACS: to examine the cross-family binding activity of the fully human antibodies, cells lines that express PD-L2 were stained with the fully human antibodies, followed by 2nd antibody staining with FITC conjugated goat anti-human IgG Fc. PD-L1 expressing cells were used as positive control. Corresponding parental cell lines were used as negative controls. The stained cells were analyzed by using a BD Biosciences FACSCanto II and FlowJo Version software.
CHO cells transfected with PD-L1 or PD-L2 were stained with fully human PD-L1 antibodies and analysis by FACS.

The next test addresses T3, murine PD-L1 (mouse, UniProt Q9EP73 19-238, limits assumed).
T3 construct: also called mouse PD-L1 (coated on ELISA plates)
As to the kind of experiment: ELISA, murine PD-L1 coated on the plate, goat anti-human IgG Fc-HRP; antibody concentration not shown. As for the experimental part: 3.7 Cross-species binding assay: the cross-reactivity of the Ab to cynomolgus and murine PD-L1 was measured by ELISA. Human, cyno and mouse PD-L1 were coated on ELISA plates, respectively. After blocking, fully human antibodies were added into the plate and incubated at room temperature for at least 2 hours. The binding of the antibodies to the coated antigens was detected by using goat anti-human IgG Fc-HRP. The color reaction was developed using TMB substrate and stopped by 2M HCl. The ELISA plates were analyzed at 450 nm using a Molecular Device M5e microplate reader.
Background: In an ELISA, binding on a coated surface is turned into a signal by an enzyme label.

In test [4] the target is T1, full-length human PD-L1 expressed on …. As to the kind of experiment: FACS competition: blocking of mouse Fc-tagged human PD-1 binding to CHO cells expressing human PD-L1. The method, then:
as §1, §2

A further test has as its target T4, recombinant human PD-L1 (human, UniProt Q9NZQ7 19-238, limits assumed).
T4 construct: Used for the SPR analyte (3.2) and for the plate-coated human PD-L1 of the cross-species ELISA (3.7); also called human PD-L1 (SPR analyte); Human PD-L1 coated on ELISA plates
As to the kind of experiment: surface plasmon resonance per legend paragraph 39 and paragraph 188; column Best fit-KD, mol/L from the legend. From the text:
3.2 Affinity test by surface plasmon resonance (SPR): Antibodies were characterized for affinity and binding kinetics to PD-L1 by SPR assay using ProteOn XPR36 (Bio-Rad). Protein A protein (Sigma) was immobilized to a GLM sensor chip (Bio-Rad) through amine coupling. Purified antibodies were flowed over the sensor chip and captured by the Protein A. The chip was rotated […] and washed with running buffer (1×PBS/0.01% Tween20, Bio-Rad) until the baseline is stable. Five concentrations of human PD-L1 and running buffer were flowed against the antibody flow cell at a flow rate 100 μL/min for an association phase of 240s, followed by 600s dissociation. The chip was regenerated with pH 1.7 H₃PO₄ after each run. The association and dissociation curve was fit to a 1:1 Langmiur binding model using ProteOn software.

T1 sequence (Q9NZQ7 19-290): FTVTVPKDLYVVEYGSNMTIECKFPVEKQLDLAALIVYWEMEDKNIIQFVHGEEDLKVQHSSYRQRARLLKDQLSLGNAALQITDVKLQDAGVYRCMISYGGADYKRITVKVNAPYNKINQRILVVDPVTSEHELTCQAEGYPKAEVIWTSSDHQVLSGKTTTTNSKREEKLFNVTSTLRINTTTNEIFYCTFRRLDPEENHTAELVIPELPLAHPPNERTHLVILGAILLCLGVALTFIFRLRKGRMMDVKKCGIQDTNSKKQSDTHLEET
T3 sequence (Q9EP73 19-238 limits assumed): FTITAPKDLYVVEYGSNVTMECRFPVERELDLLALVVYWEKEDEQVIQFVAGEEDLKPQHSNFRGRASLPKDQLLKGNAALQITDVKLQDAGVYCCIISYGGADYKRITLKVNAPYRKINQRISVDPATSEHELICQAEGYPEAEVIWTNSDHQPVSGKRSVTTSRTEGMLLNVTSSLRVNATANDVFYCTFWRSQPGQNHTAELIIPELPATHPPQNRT
T4 sequence (Q9NZQ7 19-238 limits assumed): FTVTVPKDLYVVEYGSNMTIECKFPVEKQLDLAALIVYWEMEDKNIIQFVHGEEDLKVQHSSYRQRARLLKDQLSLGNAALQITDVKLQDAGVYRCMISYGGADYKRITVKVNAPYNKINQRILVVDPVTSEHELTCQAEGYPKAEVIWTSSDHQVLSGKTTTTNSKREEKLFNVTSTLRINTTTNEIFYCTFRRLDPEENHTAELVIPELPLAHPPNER

B1: 1.20.15 (antibody, V domains shown)
VH: QLQLQESGPGLVKPSETLSLTCTVSGGSISSISNYWGWIRQPPGKGLEWIGSIYYSGSTNYNPPLKSRVTISVDTTKNQFSLKLSSVTAADTAVYYCARLTYYFDYWGQGMLVTVSS
VL: SYDLTQPPSVSVSPGQTASITCSGDKLGDKYACWYQQKPGQSPLLVIQQDSKRPSGIPARFSGSNSGNTATLTISGTQAMDEADYFCQTWDSSTVVFGGGTKLTVL
notes: Fully human monoclonal antibody with a human constant region of IgG4 isotype; also called fully human PD-L1 antibody 1.20.15; 1.20.15-VH(30712)
The EC50 (read off the curve) is the concentration at which the effect is half-maximal. Broadly, the IC50 is the concentration that gives 50% inhibition. Read a low IC50 as inhibition by little substance. The Kd is the free concentration of one partner at which half of the binding sites on the other are occupied at equilibrium, for simple one-to-one binding. On to B1, for which the “EC50 (read off the curve)” value in test [1] is ~1 nM. Further, the 50% inhibitory concentration (IC50) in test [2] is ~10 nM. The binding result (in test [3]; with murine PD-L1) was “no binding” in each case. For the same molecule, the “IC50 (read off the curve)” value in test [4] is ~2 nM. In addition, the Kd in the test with recombinant human PD-L1 was found to be 0.226 nM.

B2: 1.4.1 (antibody, V domains shown)
VH: QLQLQESGPGLVKPSESLSLTCTVSGGSISIRTYYWGWIRQPPGTGLEWMGYIYYSGSTRYNPSLKSRVTISVDTSKNQFSLKLSSVTAADTAVYYCARLSYFFDYWGQGTLVTVSS
VL: SYELTQPPSVSVSPGQTASITCSGDKLGDKYACWYQQKPGQSPVMVIYQDTKRPSGIPERFSGSNSGNTATLTISGTLAMDEADYYCQAWDSGTVIFGGGTKLTVL
notes: Fully human monoclonal antibody with a human constant region of IgG4 isotype; also called fully human PD-L1 antibody 1.4.1; 1.4.1-VH(30511)
Take B2: the binding result in test [3] is “no binding”. Further, the dissociation constant (Kd) in the test with recombinant human PD-L1 came out at 0.478 nM.

B3: 1.46.11 (antibody, V domains shown)
VH: EVQLLESGGGLVQPGGSLRLSCAASGFTFSSYAMSWVRQAPGKGLEWVSGFSGSGFITYYADSVKGRFTISRDNSKNTLYLQMNSLRAEDTAVYYCAMPPRGYNYGPFDYWGQGTLVTVSS
VL: SYVLTQPPSVSVAPGQTARITCGGNNIGSKSVHWYQQKPGQAPVLVVYDDSDRPSGIPERFSGSNSGNTATLTISRVEAGDEADYYCQVWDSSSDHVVFGGGTKLTVL
notes: Fully human monoclonal antibody with a human constant region of IgG4 isotype
For B3, the binding result (in test [3]; in the test with murine PD-L1) was “no binding” each time.
